Where a chain is given by its changes, count along the chain named.
B1: VG9B129 (antibody, human IgG1, kappa, V domains shown)
VH: EVQLVQSGAEVKKPGSSVKVSCKASGGTFSSYVISWVRQAPGQGLEWMGGILPILSTANYAQKFQGRVTITADKSTSTAYMELSSLRSEDTAVYYCARAHDYYYGMDVWGQGTTVTVSS
VL: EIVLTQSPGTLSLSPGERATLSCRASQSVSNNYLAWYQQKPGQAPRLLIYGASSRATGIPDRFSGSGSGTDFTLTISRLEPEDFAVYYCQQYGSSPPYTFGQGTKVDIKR
notes: also called antibody #59
B2: VG9B396 (antibody, human IgG1, lambda, V domains shown)
VH: EVQLVESGPGLVQPSETLSLTCTVSGDSIRGYYWNWIRQPAGKGLEWIGRIFTTGNTNYNPSLKSRLTMSLDTSKNQFSLKLNSVTAADTAVYYCAREKWDSSSSALYFDFWGQGTLVTVSS
VL: QSVLTQAPSVSGAPGQRVTISCTGSSSNIGADYDVKWYQQLPGTAPKLLIYGNTDRPSGVPDRFSGSKSGTSASLAITGLQAEDEADYYCQSYDSRLTGYVVFGGGTKLTVLG
notes: also called antibody #60
B3: VG9B111 (antibody, human IgG1, kappa, V domains shown)
VH: QVQLLESGGGLVKPGGSLRLSCAASGFTFSTYSVNWVRQAPGKGLEWVSSISSDSSYIFYADSMKGRFTISRDNAKNSLYLHMNSLRAEDTAVYYCARDSVTGPFDYWGQGTLVTVSS
VL: DIVMTQSPSSLSASVGDRVTITCQASQDISHYLNWYQQKPGKAPKLLIYDSYILETGVTSRFSGSGSGTDFTFTINSLQPEDIAIYYCQQYDNLPYTFGQGTKVEIKR
notes: also called antibody #62
B4: VG9B639 (antibody, human IgG1, kappa, V domains shown)
VH: QVQLVQSGGGLVKPGGSLRLSCAASGFTFTTYRMNWVRQAPGKGLEWVSSISSSSIYIHSADSVKGRFTISRDNAKNSLYLQMNSLRAEDSAIYYCARERVYTVSFDYWGQGTLVTVSS
VL: B3 VL with V3Q
notes: also called antibody #64
B5: VG9B470 (antibody, human IgG1, kappa, V domains shown)
VH: QVTLKESGPTLVKPTQTLTLTCTFSGFSLTTSGVGVGWIRQPPGKALEWLALILWNDHTIYSPSLKSRLTITKDTSKNQVVLTMTNMDPVDTAAYFCARDKWELRDAFDIWGQGTMVTVSS
VL: EIVMTQSPSFLSASVGDRVTFTCRASQGISRYLAWYQQKPGRAPNLLIYVASTLQSGVPSRFSGSGSGTEFTLTISSLLPEDFATYYCQQLISYPYTFSQGTRLEIKR
notes: also called antibody #61
B6: VG9B169 (antibody, human IgG1, lambda, V domains shown)
VH: EVQLLESGPGLVKPSETLSLTCSVSGGSITNYFWNWIRQPPGKGLEWIGYIFYSGSTSYNPSLKSRVTISVDTSKNRFSLKLISVTAADTAVYYCARVGRWELRTAFDIWGQGTMVTVSS
VL: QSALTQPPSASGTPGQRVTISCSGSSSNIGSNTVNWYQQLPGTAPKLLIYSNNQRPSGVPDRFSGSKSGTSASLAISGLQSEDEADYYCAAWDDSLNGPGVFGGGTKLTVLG
notes: also called antibody #63
B7: VG9B411 (antibody, human IgG1, kappa, V domains shown)
VH: EVQLVESGGGLVKPGGSLRLSCSASGFTFSNYDMNWVRQAPGKGLEWVSSISSSSSYIYYADSVKGRFTISRDNAKNSLYLQMNSLRAEDTAVYHCARDVGVTTDYYYYGMDVWGQGTTVTVSS
VL: EIVMTQSPSSVSASVGDRVTITCRASQGINSWLAWYQQDPYKAPKLLIYAASTLQSGVPSRFGGRGSGTEFTLTISSLQPEDFAVYYCQQYNNWPRTFGQGTKVDIKR
notes: also called antibody #58
B8: VG9B161 (antibody, human IgG1, lambda, V domains shown)
VH: QVQLQESGPGLVKPSETLSLTCTVSGGSISSYFWSWIRQPPGKGLEWIGYIFYSGSTNYNPSLKSRVTILVDTSKNHFSLKLSSVTAADTAVYYCARVGRWELRGAFDIWGQGTMVTVSS
VL: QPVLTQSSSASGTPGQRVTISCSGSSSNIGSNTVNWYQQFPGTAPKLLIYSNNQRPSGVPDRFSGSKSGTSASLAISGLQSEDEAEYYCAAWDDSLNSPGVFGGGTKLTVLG
notes: also called antibody #66
B9: VG9B383 (antibody, human IgG1, lambda, V domains shown)
VH: QVQLQESGPGLVKPSETLSLTCTVSSGSISSYYWNWIRQPAGKGLEWVGRIYTIGNTNYNPSLKSRVTMSIDTSKNQFSLNLSSVTAADTAVYFCAREGYYDSSGSFFPGAFGIWGQGTMVTVSS
VL: SSELTQPASVSGSPGQSITISCTGTSNDVGSYNLVSWYQQHPGKAPKLMIYAGSKRPSGISNRFSGSKSGNTASLTISGLQAEDEADYYCCSFAGATNVVFGGGTKLTVLG
notes: also called antibody #67
B10: VG9B201 (antibody, human IgG1, lambda, V domains shown)
VH: QVTLKESGPTLVKPTQTLTLTCTFSGFSLTTHGVGVGWIRQPPRKALEWLALIYWNADKHYSPSLKSRLTITKDTSKNQVVLTMTHMDPVDTATYYCAHEGDWGHYFDFWGQGTLVTVSS
VL: QLVLTQPPSVSAAPGQKVTISCSGSSSNIGNNDVSWYQQLPGTAPKLLIYDNNRRPSGIPDRFSGSKSGTSATLGITGLQTGDEADYYCETWDSSLSAIWVFGGGTKVTVLG
notes: also called antibody #65
B11: VG9B60 (antibody, human IgG1, kappa, V domains shown)
VH: QVQLVQSGAEVKKPGASVKVSCKASGYTFTGYYMHWVRQAPGQGLEWMGRINPNSGVTHYAQKFQGRVTMTRDTSISTAYMELSRLRSDDTAVYYCARGGSLVRGVISGLDYWGQGTTVTVSS
VL: DIVMTQSPGTLSLSPGERATLSCRASQSFSGSYLAWYQQKPGQAPSLLIYGASSRATGIPDRFSGSGSGTDFTLTISRLEPEDFALYYCQQYGSSPPYTFGQGTKVEIKR
B12: VG9B66 (antibody, human IgG1, kappa, V domains shown)
VH: EVQLVESGGGLVKPGGSLRLSCAASGFTFSTYTMNWVRQAPGKGLEWVSSISSSSFYMDYADSVKGRFTISRDNAKNSLSLLMNSLRAEDTAVYYCARDGDIVATIRGSFDYWGQGTMVTVSS
VL: EIVLTQSPSSLSTSVGDRVTITCRASQDITNFLAWYQQKPGKLPKLLIYTASTLQSGVPSRFSGSASGPDFTLTISSLQPEDVATYYCQKYNSAPFTFGPGTKVEIKR
B13: VG9B135 (antibody, human IgG1, kappa, V domains shown)
VH: QVTLKESGPTLVTPSQTLTLTCTFSGFSLTTYGVGVGWIRQPPGKALEWLALIYWNDDKRYYPSLNNRLTITKDTSKHLVVLTLTNMDPVDTATYYCAHDYDFWSGYFDYWGQGTLVTVSS
VL: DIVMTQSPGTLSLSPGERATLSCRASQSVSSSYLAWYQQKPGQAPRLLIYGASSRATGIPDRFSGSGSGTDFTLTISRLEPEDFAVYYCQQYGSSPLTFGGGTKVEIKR
B14: VG9B32 (antibody, human IgG1, kappa, V domains shown)
VH: EVQLVQSGGDLLQPGGSLRLSCAASGFTFSRYAMNWVRQAPGKGLEWVSFISGTGYTVYYADSVKGRFTISRDNAKNSLYLQMNSLRDEDTAVYYCARDQEPGFDYWGQGTLVTVSS
VL: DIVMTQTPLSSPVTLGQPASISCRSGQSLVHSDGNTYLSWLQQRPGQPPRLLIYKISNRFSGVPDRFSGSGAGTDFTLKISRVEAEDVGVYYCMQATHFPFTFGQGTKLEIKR
B15: VG9B128 (antibody, human IgG1, kappa, V domains shown)
VH: EVQLVESGGGVVQPGKSLRLSCTASGFTFGTYGMHWVRQAPGKGLDWVAVIWYNGSNKYYADSVKGRFTISRDNSKNTLYLQMNSLRTEDTAVYYCARGGFGESFDSWGQGTLVTVSS
VL: DIVMTQTPATLSLSPGERATLSCRASQSVIDYLAWFQQKPGQAPRLLIYDASNRATGIPARFSGSGSGTDFTLTISSLEPEDFAVYYCQQRSNWPLTFGGGTKVEIKR
B16: VG9B409 (antibody, human IgG1, kappa, V domains shown)
VH: EVQLVESGAEVKKPGASVKVSCKASGYTLTSYYMHWVRQAPGQGLEWMGIINPSGGSTSYAQKFQGRVTMTRDTSTSTVYMELSSLRSEDTAVYYCARGSYGWYFDLWGRGTLVTVSS
VL: EIVLTQSPGTLSLSPGERATLSCRASQSVTSSYLAWYQQKPGQTPRLLIYGASSRATGIPDRISGSGSGTDFTLTVSRLEPEDFAVYYCQQYGSSPPYTFGQGTKLEIKR
B17: VG9B57 (antibody, human IgG1, kappa, V domains shown)
VH: EVQLVESGGGLVKPGGSLRLSCAASGFTFSSHDMNWVRQAPGKGLGWVSSISSSSSYIFYADSVKGRFTISRDNAKNSLYLQMSSLRAEDTAVYYCARDLGVGVRDYYYYGMDVWGQGTMVTVSS
VL: DIQMTQSPSAMSASVGDRVTITCRASQDITNYLAWFQQKPGKVPKRLIYAASSLQGGVPSRFSGSGSGTEFTLTISSLQPEDFSTYYCLQHDTYPYTFGQGTKLEIKR

The binders below were run against T1, γδ T cell receptor on human γδ T cells (human) (assay: flow cytometry, dose-response (DRC) binding at 37°C on human γδ T cells).
T1 construct: also called AG000003021 (γδ T cells)
Experimental: (§1) Binding of antibodies to human γδ T cells or SKW cell lines expressing Vγ9/Vδ2, Vγ9/Vδ2 or Vγ5/Vδ2 was carried out by flow cytometry. Briefly, the cells were centrifuged at 300×g for 5 minutes and the pellet was resuspended in 34 ml fresh media (in RPMI+10% FBS). 50 μL of the cells were then plated (44K cells/well) into assay plates. Samples were incubated for one hour at 37° C. in tissue culture (TC) incubator followed by wash steps by adding 100 μl FACS staining buffer. Secondary detention antibodies (A647 conjugated anti-human IgG Fc specific antibody (2 μg/mL) along with AF488 anti mouse CD3, clone OKT3 at 1 ug/mL) were added at 50 μL/well to appropriate wells according to the plate map. After incubating for 60 minutes at 37° C. in the TC incubator, cells were again washed as described above. This is followed by resuspension in 20 μL/well running buffer containing 1:1000 dilution of Sytox blue dead cell stain and the plates were run on iQue Screener.
(§2) Gating and data analysis: Human anti-human Vγ9 antibody (VG9B2 mAb at 10 nM) was used to mark the gating of positive population. All cells were first gated for singlets on SCS-A vs. SCS-H dot plot, live/dead followed by CD3 positive population, and this subset of CD3 positive population was gated for Vγ9 positive binding using positive control mAb. Cells were also assessed for cell binding of control mAbs by RL1 (A647) Geomeans from the live cell population. Advanced metrics were used and normalization metrics were chosen to calculate fold over background wells containing secondary antibody alone (designated as ‘background’ within ForeCyt settings).

First: B1
Second: B2
The “Max. Activity” value of the first is lower: 271 fold over background for the first, 4540 fold over background for the second.

Compared with B3, B4 is lower in “Max. Activity” value: 3430 fold over background for the first, 3240 fold over background for the second.

Going from B5 to B6, the “Max. Activity” value falls from 4270 fold over background to 3250 fold over background.

First: B7
Second: B8
The “Max. Activity” value of the first is lower: 396 fold over background for the first, 2820 fold over background for the second.

Going from B9 to B10, the “Max. Activity” value rises from 2780 fold over background to 3170 fold over background.

Each binder was assayed against T2, γδ T cell receptor on human γδ T cells (human) (assay: flow cytometry, dose-response binding at 37° C. on human γδ T cells).
T2 construct: Mixed population of primary cells; also called AG000003021 (γδ T cells)
Experimental: as §1, §2

First: B11
Second: B12
The “Max. Activity” value of the first is lower: 567 fold over background for the first, 1220 fold over background for the second.

Compared with B13, B14 is higher in “Max. Activity” value: 577 fold over background for the first, 1210 fold over background for the second.

First: B15
Second: B16
The “Max. Activity” value of the first is higher: 1480 fold over background for the first, 411 fold over background for the second.

With B17 the “Max. Activity” value was 1210 fold over background.

Source: patent US20220125947A1 (published 2022)
